Test results published in US20200057047.

Legend:
[1] = tested on: Flag-tagged RORγt (wild type)
[2] = biological target: Myc-tagged IQGAP1 (wild type)
Chain of Myc-tagged IQGAP1 (wild type) (chain, as listed by the source): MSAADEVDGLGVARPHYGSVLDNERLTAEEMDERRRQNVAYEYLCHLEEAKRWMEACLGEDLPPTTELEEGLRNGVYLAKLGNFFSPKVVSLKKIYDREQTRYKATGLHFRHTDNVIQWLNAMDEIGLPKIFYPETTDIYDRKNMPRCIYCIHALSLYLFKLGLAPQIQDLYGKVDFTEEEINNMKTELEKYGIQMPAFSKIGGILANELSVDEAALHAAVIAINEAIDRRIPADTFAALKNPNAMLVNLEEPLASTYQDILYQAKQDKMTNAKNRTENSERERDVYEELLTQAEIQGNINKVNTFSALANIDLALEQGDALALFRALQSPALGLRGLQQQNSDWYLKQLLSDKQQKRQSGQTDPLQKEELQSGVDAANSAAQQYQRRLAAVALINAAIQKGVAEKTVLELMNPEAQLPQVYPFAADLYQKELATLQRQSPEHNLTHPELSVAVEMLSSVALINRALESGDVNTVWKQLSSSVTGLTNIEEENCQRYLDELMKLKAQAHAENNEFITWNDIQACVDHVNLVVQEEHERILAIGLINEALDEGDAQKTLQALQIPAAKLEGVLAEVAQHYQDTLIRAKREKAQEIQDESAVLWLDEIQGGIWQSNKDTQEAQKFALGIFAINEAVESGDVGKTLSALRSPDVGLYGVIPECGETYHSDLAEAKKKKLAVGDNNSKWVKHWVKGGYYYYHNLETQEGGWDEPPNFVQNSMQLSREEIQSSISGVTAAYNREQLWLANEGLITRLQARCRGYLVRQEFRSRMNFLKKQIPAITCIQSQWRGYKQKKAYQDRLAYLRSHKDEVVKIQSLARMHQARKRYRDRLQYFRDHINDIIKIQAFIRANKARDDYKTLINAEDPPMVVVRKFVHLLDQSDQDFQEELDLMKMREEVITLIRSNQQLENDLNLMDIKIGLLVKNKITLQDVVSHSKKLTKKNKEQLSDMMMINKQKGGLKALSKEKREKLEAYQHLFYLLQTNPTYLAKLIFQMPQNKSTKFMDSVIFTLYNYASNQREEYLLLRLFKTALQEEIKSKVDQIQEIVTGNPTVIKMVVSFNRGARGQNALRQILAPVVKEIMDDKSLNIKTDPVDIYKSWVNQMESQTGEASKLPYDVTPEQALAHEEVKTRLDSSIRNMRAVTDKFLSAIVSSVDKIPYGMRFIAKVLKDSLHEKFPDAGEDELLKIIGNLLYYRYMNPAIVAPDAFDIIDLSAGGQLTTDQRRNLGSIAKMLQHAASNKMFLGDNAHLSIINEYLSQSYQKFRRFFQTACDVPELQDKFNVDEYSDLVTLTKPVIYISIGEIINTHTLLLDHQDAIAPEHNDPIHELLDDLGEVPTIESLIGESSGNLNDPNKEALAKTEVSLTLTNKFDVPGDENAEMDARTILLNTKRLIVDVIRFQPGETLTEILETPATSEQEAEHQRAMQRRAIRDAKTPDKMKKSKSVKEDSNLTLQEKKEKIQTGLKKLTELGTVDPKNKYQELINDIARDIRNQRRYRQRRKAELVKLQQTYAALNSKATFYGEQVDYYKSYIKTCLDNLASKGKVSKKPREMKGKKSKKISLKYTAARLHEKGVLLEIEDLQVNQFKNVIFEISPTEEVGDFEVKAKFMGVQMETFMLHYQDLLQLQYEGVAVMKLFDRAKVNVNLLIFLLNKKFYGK

Chain of Flag-tagged RORγt (wild type) (chain, as listed by the source): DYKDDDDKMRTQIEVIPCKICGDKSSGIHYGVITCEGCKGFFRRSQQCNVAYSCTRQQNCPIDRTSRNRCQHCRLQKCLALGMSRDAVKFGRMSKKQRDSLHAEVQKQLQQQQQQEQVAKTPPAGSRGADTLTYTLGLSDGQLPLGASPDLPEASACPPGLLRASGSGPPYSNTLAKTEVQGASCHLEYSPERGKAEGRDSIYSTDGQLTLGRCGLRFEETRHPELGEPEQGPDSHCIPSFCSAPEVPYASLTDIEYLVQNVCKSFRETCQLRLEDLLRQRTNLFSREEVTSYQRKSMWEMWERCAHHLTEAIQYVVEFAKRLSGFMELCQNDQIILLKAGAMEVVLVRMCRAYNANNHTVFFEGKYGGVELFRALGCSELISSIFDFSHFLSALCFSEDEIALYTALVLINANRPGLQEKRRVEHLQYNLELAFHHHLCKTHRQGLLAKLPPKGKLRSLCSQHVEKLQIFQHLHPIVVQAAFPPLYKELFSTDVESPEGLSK

Protein	in vitro kinase assay: RORγt phosphorylation [1]	in vitro kinase assay: IQGAP1 phosphorylation [2]
IKKβ (immunoprecipitated from HEK293T transfectants) (enzyme, UniProt O14920 1-756, looked up, species assumed) Inhibitor of nuclear factor kappa-B kinase subunit beta: MSWSPSLTTQTCGAWEMKERLGTGGFGNVIRWHNQETGEQIAIKQCRQELSPRNRERWCLEIQIMRRLTHPNVVAARDVPEGMQNLAPNDLPLLAMEYCQGGDLRKYLNQFENCCGLREGAILTLLSDIASALRYLHENRIIHRDLKPENIVLQQGEQRLIHKIIDLGYAKELDQGSLCTSFVGTLQYLAPELLEQQKYTVTVDYWSFGTLAFECITGFRPFLPNWQPVQWHSKVRQKSEVDIVVSEDLNGTVKFSSSLPYPNNLNSVLAERLEKWLQLMLMWHPRQRGTDPTYGPNGCFKALDDILNLKLVHILNMVTGTIHTYPVTEDESLQSLKARIQQDTGIPEEDQELLQEAGLALIPDKPATQCISDGKLNEGHTLDMDLVFLFDNSKITYETQISPRPQPESVSCILQEPKRNLAFFQLRKVWGQVWHSIQTLKEDCNRLQQGQRAAMMNLLRNNSCLSKMKNSMASMSQQLKAKLDFFKTSIQIDLEKYSEQTEFGITSDKLLLAWREMEQAVELCGRENEVKLLVERMMALQTDIVDLQRSPMGRKQGGTLDDLEEQARELYRRLREKPRDQRTEGDSQEMVRLLLQAIQSFEKKVRVIYTQLSKTVVCKQKALELLPKVEEVVSLMNEDEKTVVRLQEKRQKELWNLLKIACSKVRGPVSGSPDSMNASRLSQPGQLMSQPSTASNSLPEPAKKSEELVAEAHNLCTLLENAIQDTVREQDQSFTALDWSWLQTEEEEHSCLEQAS	RORγt phosphorylation was induced in vitro by IKKβ	–
Flag-tagged GLK (protein) DYKDDDDKMNPGFDLSRRNPQEDFELIQRIGSGTYGDVYKARNVNTGELAAIKVIKLEPGEDFAVVQQEIIMMKDCKHPNIVAYFGSYLRRDKLWICMEFCGGGSLQDIYHVTGPLSELQIAYVSRETLQGLYYLHSKGKMHRDIKGANILLTDNGHVKLADFGVSAQITATIAKRKSFIGTPYWMAPEVAAVERKGGYNQLCDLWAVGITAIELAELQPPMFDLHPMRALFLMTKSNFQPPKLKDKMKWSNSFHHFVKMALTKNPKKRPTAEKLLQHPFVTQHLTRSLAIELLDKVNNPDHSTYHDFDDDDPEPLVAVPHRIHSTSRNVREEKTRSEITFGQVKFDPPLRKETEPHHELPDSDGFLDSSEEIYYTARSNLDLQLEYGQGHQGGYFLGANKSLLKSVEEELHQRGHVAHLEDDEGDDDESKHSTLKAKIPPPLPPKPKSIFIPQEMHSTEDENQGTIKRCPMSGSPAKPSQVPPRPPPPRLPPHKPVALGNGMSSFQLNGERDGSLCQQQNEHRGTNLSRKEKKDVPKPISNGLPPTPKVHMGACFSKVFNGCPLKIHCASSWINPDTRDQYLIFGAEEGIYTLNLNELHETSMEQLFPRRCTWLYVMNNCLLSISGKASQLYSHNLPGLFDYARQMQKLPVAIPAHKLPDRILPRKFSVSAKIPETKWCQKCCVVRNPYTGHKYLCGALQTSIVLLEWVEPMQKFMLIKHIDFPIPCPLRMFEMLVVPEQEYPLVCVGVSRGRDFNQVVRFETVNPNSTSSWFTESDTPQTNVTHVTQLERDTILVCLDCCIKIVNLQGRLKSSRKLSSELTFDFQIESIVCLQDSVLAFWKHGMQGRSFRSNEVTQEISDSTRIFRLLGSDRVVVLESRPTDNPTANSNLYILAGHENSY	–	IQGAP1 phosphorylation was induced by GLK
